# ChEMBL document CHEMBL3526061, “Glucuronidation of edaravone by human liver and kidney microsomes: biphasic kinetics and identification of UGT1A9 as the major UDP-glucuronosyltransferase isoform” (Drug Metab Dispos, 2012)
# Assays:
# [1] = substrate: COc1c(C)c2c(c(O)c1C/C=C(\C)CCC(=O)O)C(=O)OC2; assay: Activity of human recombinant UGT1A9 expressed in insect cells assessed as enzyme mediated glucuronidation by LC-MS/MS method; format: ADME
# [2] = substrate: CC(C)c1cccc(C(C)C)c1O; assay: not read
# [3] = substrate: CC1=NN(c2ccccc2)C(=O)C1; assay: Activity of human recombinant UGT1A7 expressed in insect cells assessed as enzyme mediated glucuronidation by LC-MS/MS method; format: ADME
# [4] = substrate: CC1=NN(c2ccccc2)C(=O)C1; assay: Activity of human recombinant UGT2B7 expressed in insect cells assessed as enzyme mediated glucuronidation by LC-MS/MS method; format: ADME
# [5] = substrate: CC1=NN(c2ccccc2)C(=O)C1; assay: Activity of human recombinant UGT2B17 expressed in insect cells assessed as enzyme mediated glucuronidation by LC-MS/MS method; format: ADME
# [6] = substrate: CC1=NN(c2ccccc2)C(=O)C1; assay: Activity of human recombinant UGT1A6 expressed in insect cells assessed as enzyme mediated glucuronidation by LC-MS/MS method; format: ADME
# [7] = substrate: CC1=NN(c2ccccc2)C(=O)C1; assay: Activity of human recombinant UGT1A1 expressed in insect cells assessed as enzyme mediated glucuronidation by LC-MS/MS method; format: ADME
protein,measurement,setting,value
UDP-glucuronosyltransferase 1A9 (Homo sapiens) (protein) MACTGWTSPLPLCVCLLLTCGFAEAGKLLVVPMDGSHWFTMRSVVEKLILRGHEVVVVMPEVSWQLGRSLNCTVKTYSTSYTLEDLDREFKAFAHAQWKAQVRSIYSLLMGSYNDIFDLFFSNCRSLFKDKKLVEYLKESSFDAVFLDPFDNCGLIVAKYFSLPSVVFARGILCHYLEEGAQCPAPLSYVPRILLGFSDAMTFKERVRNHIMHLEEHLLCHRFFKNALEIASEILQTPVTEYDLYSHTSIWLLRTDFVLDYPKPVMPNMIFIGGINCHQGKPLPMEFEAYINASGEHGIVVFSLGSMVSEIPEKKAMAIADALGKIPQTVLWRYTGTRPSNLANNTILVKWLPQNDLLGHPMTRAFITHAGSHGVYESICNGVPMVMMPLFGDQMDNAKRMETKGAGVTLNVLEMTSEDLENALKAVINDKSYKENIMRLSSLHKDRPVEPLDLAVFWVEFVMRHKGAPHLRPAAHDLTWYQYHSLDVIGFLLAVVLTVAFITFKCCAYGYRKCLGKKGRVKKAHKSKTH,Km,[1],160 µM
same,Km,[2],41 µM
UDP-glucuronosyltransferase 1A7 (Homo sapiens) (protein) MARAGWTGLLPLYVCLLLTCGFAKAGKLLVVPMDGSHWFTMQSVVEKLILRGHEVVVVMPEVSWQLGRSLNCTVKTYSTSYTLEDQDREFMVFADARWTAPLRSAFSLLTSSSNGIFDLFFSNCRSLFNDRKLVEYLKESCFDAVFLDPFDACGLIVAKYFSLPSVVFARGIFCHYLEEGAQCPAPLSYVPRLLLGFSDAMTFKERVWNHIMHLEEHLFCPYFFKNVLEIASEILQTPVTAYDLYSHTSIWLLRTDFVLEYPKPVMPNMIFIGGINCHQGKPVPMEFEAYINASGEHGIVVFSLGSMVSEIPEKKAMAIADALGKIPQTVLWRYTGTRPSNLANNTILVKWLPQNDLLGHPMTRAFITHAGSHGVYESICNGVPMVMMPLFGDQMDNAKRMETKGAGVTLNVLEMTSEDLENALKAVINDKSYKENIMRLSSLHKDRPVEPLDLAVFWVEFVMRHKGAPHLRPAAHDLTWYQYHSLDVIGFLLAVVLTVAFITFKCCAYGYRKCLGKKGRVKKAHKSKTH,Km,[3],432 µM
same,Vmax,[3],7.4e-07 µmol/min/mg
UDP-glucuronosyltransferase 2B7 (Homo sapiens) (protein) MSVKWTSVILLIQLSFCFSSGNCGKVLVWAAEYSHWMNIKTILDELIQRGHEVTVLASSASILFDPNNSSALKIEIYPTSLTKTELENFIMQQIKRWSDLPKDTFWLYFSQVQEIMSIFGDITRKFCKDVVSNKKFMKKVQESRFDVIFADAIFPCSELLAELFNIPFVYSLSFSPGYTFEKHSGGFIFPPSYVPVVMSELTDQMTFMERVKNMIYVLYFDFWFEIFDMKKWDQFYSEVLGRPTTLSETMGKADVWLIRNSWNFQFPYPLLPNVDFVGGLHCKPAKPLPKEMEDFVQSSGENGVVVFSLGSMVSNMTEERANVIASALAQIPQKVLWRFDGNKPDTLGLNTRLYKWIPQNDLLGHPKTRAFITHGGANGIYEAIYHGIPMVGIPLFADQPDNIAHMKARGAAVRVDFNTMSSTDLLNALKRVINDPSYKENVMKLSRIQHDQPVKPLDRAVFWIEFVMRHKGAKHLRVAAHDLTWFQYHSLDVIGFLLVCVATVIFIVTKCCLFCFWKFARKAKKGKND,Km,[4],2380 µM
same,Vmax,[4],1.77e-06 µmol/min/mg
UDP-glucuronosyltransferase 2B17 (Homo sapiens) (protein) MSLKWMSVFLLMQLSCYFSSGSCGKVLVWPTEYSHWINMKTILEELVQRGHEVIVLTSSASILVNASKSSAIKLEVYPTSLTKNDLEDFFMKMFDRWTYSISKNTFWSYFSQLQELCWEYSDYNIKLCEDAVLNKKLMRKLQESKFDVLLADAVNPCGELLAELLNIPFLYSLRFSVGYTVEKNGGGFLFPPSYVPVVMSELSDQMIFMERIKNMIYMLYFDFWFQAYDLKKWDQFYSEVLGRPTTLFETMGKAEMWLIRTYWDFEFPRPFLPNVDFVGGLHCKPAKPLPKEMEEFVQSSGENGIVVFSLGSMISNMSEESANMIASALAQIPQKVLWRFDGKKPNTLGSNTRLYKWLPQNDLLGHPKTKAFITHGGTNGIYEAIYHGIPMVGIPLFADQHDNIAHMKAKGAALSVDIRTMSSRDLLNALKSVINDPIYKENIMKLSRIHHDQPVKPLDRAVFWIEFVMRHKGAKHLRVAAHNLTWIQYHSLDVIAFLLACVATMIFMITKCCLFCFRKLAKTGKKKKRD,Km,[5],129 µM
same,Vmax,[5],4.29e-07 µmol/min/mg
UDP-glucuronosyltransferase 1A6 (Homo sapiens) (protein) MACLLRSFQRISAGVFFLALWGMVVGDKLLVVPQDGSHWLSMKDIVEVLSDRGHEIVVVVPEVNLLLKESKYYTRKIYPVPYDQEELKNRYQSFGNNHFAERSFLTAPQTEYRNNMIVIGLYFINCQSLLQDRDTLNFFKESKFDALFTDPALPCGVILAEYLGLPSVYLFRGFPCSLEHTFSRSPDPVSYIPRCYTKFSDHMTFSQRVANFLVNLLEPYLFYCLFSKYEELASAVLKRDVDIITLYQKVSVWLLRYDFVLEYPRPVMPNMVFIGGINCKKRKDLSQEFEAYINASGEHGIVVFSLGSMVSEIPEKKAMAIADALGKIPQTVLWRYTGTRPSNLANNTILVKWLPQNDLLGHPMTRAFITHAGSHGVYESICNGVPMVMMPLFGDQMDNAKRMETKGAGVTLNVLEMTSEDLENALKAVINDKSYKENIMRLSSLHKDRPVEPLDLAVFWVEFVMRHKGAPHLRPAAHDLTWYQYHSLDVIGFLLAVVLTVAFITFKCCAYGYRKCLGKKGRVKKAHKSKTH,Km,[6],778 µM
same,Vmax,[6],1.24e-06 µmol/min/mg
UDP-glucuronosyltransferase 1A1 (Homo sapiens) (protein) MAVESQGGRPLVLGLLLCVLGPVVSHAGKILLIPVDGSHWLSMLGAIQQLQQRGHEIVVLAPDASLYIRDGAFYTLKTYPVPFQREDVKESFVSLGHNVFENDSFLQRVIKTYKKIKKDSAMLLSGCSHLLHNKELMASLAESSFDVMLTDPFLPCSPIVAQYLSLPTVFFLHALPCSLEFEATQCPNPFSYVPRPLSSHSDHMTFLQRVKNMLIAFSQNFLCDVVYSPYATLASEFLQREVTVQDLLSSASVWLFRSDFVKDYPRPIMPNMVFVGGINCLHQNPLSQEFEAYINASGEHGIVVFSLGSMVSEIPEKKAMAIADALGKIPQTVLWRYTGTRPSNLANNTILVKWLPQNDLLGHPMTRAFITHAGSHGVYESICNGVPMVMMPLFGDQMDNAKRMETKGAGVTLNVLEMTSEDLENALKAVINDKSYKENIMRLSSLHKDRPVEPLDLAVFWVEFVMRHKGAPHLRPAAHDLTWYQYHSLDVIGFLLAVVLTVAFITFKCCAYGYRKCLGKKGRVKKAHKSKTH,Km,[7],285 µM
same,Vmax,[7],4.52e-08 µmol/min/mg
